Experimental data from US6897197.

Target: human MDM2, full length (CMV driven expression construct pCHDM1A) (human) (UniProt Q00987)
Assay: cell-based or functional assay

Chain of human MDM2, full length (CMV driven expression construct pCHDM1A) (human) (Q00987 whole entry): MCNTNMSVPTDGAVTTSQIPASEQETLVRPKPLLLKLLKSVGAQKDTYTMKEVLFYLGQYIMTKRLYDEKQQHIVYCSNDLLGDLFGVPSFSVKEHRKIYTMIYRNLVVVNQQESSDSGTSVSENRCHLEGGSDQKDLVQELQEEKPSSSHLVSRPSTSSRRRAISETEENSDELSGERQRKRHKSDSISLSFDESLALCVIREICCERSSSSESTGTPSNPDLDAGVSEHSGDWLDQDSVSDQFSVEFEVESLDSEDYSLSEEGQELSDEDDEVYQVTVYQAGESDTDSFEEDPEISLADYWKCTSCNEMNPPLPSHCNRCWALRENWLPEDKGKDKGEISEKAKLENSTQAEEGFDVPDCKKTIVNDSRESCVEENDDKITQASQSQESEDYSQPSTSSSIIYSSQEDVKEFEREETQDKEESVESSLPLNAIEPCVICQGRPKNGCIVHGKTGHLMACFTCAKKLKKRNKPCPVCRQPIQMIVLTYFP

Question: “mouse p19^ARF (complete ORF, expression construct in pVNic) (from UniProt Q64364 1-169)” was tested. Which transformed foci in MDM2/RAS REF cotransformation with p19^ARF added (40 foci without) did it give?
Answer: Its transformed foci in MDM2/RAS REF cotransformation with p19^ARF added (40 foci without) is 3 foci.
